Results reported in patent US20150203577A1 (Chugai, published 2015).

T1: mouse FcγRII (mouse, UniProt P08101 30-210)
T1 construct: Extracellular domain with C-terminal His tag; also called mFcγRII; mFcgRII
T1 sequence: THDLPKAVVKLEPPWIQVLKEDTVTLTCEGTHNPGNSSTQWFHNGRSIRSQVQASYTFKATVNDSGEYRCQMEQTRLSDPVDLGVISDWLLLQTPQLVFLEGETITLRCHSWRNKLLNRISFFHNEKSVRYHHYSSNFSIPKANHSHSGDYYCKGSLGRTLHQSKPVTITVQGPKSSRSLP

T2: mouse FcγRIII (mouse, UniProt P08508 31-215)
T2 construct: Extracellular domain with C-terminal His tag; also called mFcγRIII; mFcgRIII
T2 chain: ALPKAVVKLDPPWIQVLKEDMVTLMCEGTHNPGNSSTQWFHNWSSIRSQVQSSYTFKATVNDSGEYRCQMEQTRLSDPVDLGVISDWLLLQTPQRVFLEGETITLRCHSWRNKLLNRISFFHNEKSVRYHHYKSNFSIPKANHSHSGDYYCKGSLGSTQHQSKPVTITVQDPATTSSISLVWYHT


Legend:
mouse FcγRII [1] = molecular target: T1, mouse FcγRII; assay: SPR (Biacore T200); KD of H237-MB630/MRAL-k0 / KD of variant
mouse FcγRIII [2] = molecular target: T2, mouse FcγRIII; assay: as above
mouse FcγRII [3] = molecular target: T1, mouse FcγRII; assay: SPR (Biacore T200); KD of H237-mIgG1/MRAL-k0 / KD of variant
mouse FcγRIII [4] = molecular target: T2, mouse FcγRIII; assay: as above

Relative mFcγRII-binding activity (MB630 = 1) (mouse FcγRII [1]) [fold]	Relative mFcγRIII-binding activity (MB630 = 1) (mouse FcγRIII [2]) [fold]	relative mFcγRII-binding activity (mIgG1 = 1) (mouse FcγRII [3]) [fold]	relative mFcγRIII-binding activity (mIgG1 = 1) (mouse FcγRIII [4]) [fold]	Binder
2.84	4.79	30.9	0.82	MB789 (antibody, mouse IgG1, kappa, CH name; VH H237 + CH, L chain MRAL-k0; copies: 2 + 2) heavy: QVQLQESGPGLVKPSETLSLTCAVSGHSISHDHAWSWVRQPPGEGLEWIGFISYSGITNYNPSLQGRVTISRDNSKNTLYLQMNSLRAEDTAVYYCARSLARTTAMDYWGEGTLVTVSSAKTTPPSVYPLAPGSAAQTNSMVTLGCLVKGYFPEPVTVTWNSGSLSSGVHTFPAVLQSDLYTLSSSVTVPSSTWPSETVTCNVAHPASSTKVDKKIVPRDCGCKPCICEPNEVELVFIFPPKPKDVLTITLTPKVTCVVVDISKDDPEVQFSWFVDDVEVHTAQTQPREELFNSTFRSVSELPIMHQDWLNGKEFKCRVNSDAFPAPIERTISKTKGRPKAPQVYTIPPPKEQMAKDKVSLTCMITDFFPEDITVEWQWNGQPAENYKNTQPIMDTDGSYFVYSKLNVQKSNWEAGNTFTCSVLHEGLHNHHTEKSLSHSPGK light: not shown
2.54	2.93	33.4	0.68	MB812 (antibody, mouse IgG1, kappa, CH name; VH H237 + CH, L chain MRAL-k0; copies: 2 + 2) heavy: QVQLQESGPGLVKPSETLSLTCAVSGHSISHDHAWSWVRQPPGEGLEWIGFISYSGITNYNPSLQGRVTISRDNSKNTLYLQMNSLRAEDTAVYYCARSLARTTAMDYWGEGTLVTVSSAKTTPPSVYPLAPGSAAQTNSMVTLGCLVKGYFPEPVTVTWNSGSLSSGVHTFPAVLQSDLYTLSSSVTVPSSTWPSETVTCNVAHPASSTKVDKKIVPRDCGCKPCICEPNEVELVFIFPPKPKDVLTITLTPKVTCVVVDISKDDPEVQFSWFVDDVEVHTAQTQPREEQFNSTFRSVSELPIMHQDWLNGKEFKCRVDSAGFPAPIEKTISKTKGRPKAPQVYTIPPPKEQMAKDKVSLTCMITDFFPEDITVEWQWNGQPAENYKNTQPIMDTDGSYFVYSKLNVQKSNWEAGNTFTCSVLHEGLHNHHTEKSLSHSPGK light: not shown
1.44	1.92	19	0.44	MB809 (antibody, mouse IgG1, kappa, CH name; VH H237 + CH, L chain MRAL-k0; copies: 2 + 2) heavy: QVQLQESGPGLVKPSETLSLTCAVSGHSISHDHAWSWVRQPPGEGLEWIGFISYSGITNYNPSLQGRVTISRDNSKNTLYLQMNSLRAEDTAVYYCARSLARTTAMDYWGEGTLVTVSSAKTTPPSVYPLAPGSAAQTNSMVTLGCLVKGYFPEPVTVTWNSGSLSSGVHTFPAVLQSDLYTLSSSVTVPSSTWPSETVTCNVAHPASSTKVDKKIVPRDCGCKPCICEPNEVELVFIFPPKPKDVLTITLTPKVTCVVVDISKDDPEVQFSWFVDDVEVHTAQTQPREELFNSTFRSVSELPIMHQDWLNGKEFKCRVNSAAFPAFIEKTISKTKGRPKAPQVYTIPPPKEQMAKDKVSLTCMITDFFPEDITVEWQWNGQPAENYKNTQPIMDTDGSYFVYSKLNVQKSNWEAGNTFTCSVLHEGLHNHHTEKSLSHSPGK light: not shown
2.22	3.4	29.2	0.78	MB808 (antibody, mouse IgG1, kappa, CH name; VH H237 + CH, L chain MRAL-k0; copies: 2 + 2) heavy: QVQLQESGPGLVKPSETLSLTCAVSGHSISHDHAWSWVRQPPGEGLEWIGFISYSGITNYNPSLQGRVTISRDNSKNTLYLQMNSLRAEDTAVYYCARSLARTTAMDYWGEGTLVTVSSAKTTPPSVYPLAPGSAAQTNSMVTLGCLVKGYFPEPVTVTWNSGSLSSGVHTFPAVLQSDLYTLSSSVTVPSSTWPSETVTCNVAHPASSTKVDKKIVPRDCGCKPCICEPNEVELVFIFPPKPKDVLTITLTPKVTCVVVDISKDDPEVQFSWFVDDVEVHTAQTQPREELFNSTFRSVSELPIMHQDWLNGKEFKCRVNSAGFPAPIEKTISKTKGRPKAPQVYTIPPPKEQMAKDKVSLTCMITDFFPEDITVEWQWNGQPAENYKNTQPIMDTDGSYFVYSKLNVQKSNWEAGNTFTCSVLHEGLHNHHTEKSLSHSPGK light: not shown
3.7	6.43	40.1	1.1	MB791 (antibody, mouse IgG1, kappa, CH name; VH H237 + CH, L chain MRAL-k0; copies: 2 + 2) heavy: QVQLQESGPGLVKPSETLSLTCAVSGHSISHDHAWSWVRQPPGEGLEWIGFISYSGITNYNPSLQGRVTISRDNSKNTLYLQMNSLRAEDTAVYYCARSLARTTAMDYWGEGTLVTVSSAKTTPPSVYPLAPGSAAQTNSMVTLGCLVKGYFPEPVTVTWNSGSLSSGVHTFPAVLQSDLYTLSSSVTVPSSTWPSETVTCNVAHPASSTKVDKKIVPRDCGCKPCICEPNEVELVFIFPPKPKDVLTITLTPKVTCVVVDISKDDPEVQFSWFVDDVEVHTAQTQPREELFNSTFRSVSELPIMHQDWLNGKEFKCRVDSDAFPAPIERTISKTKGRPKAPQVYTIPPPKEQMAKDKVSLTCMITDFFPEDITVEWQWNGQPAENYKNTQPIMDTDGSYFVYSKLNVQKSNWEAGNTFTCSVLHEGLHNHHTEKSLSHSPGK light: not shown
1.58	2.24	20.8	0.52	MB810 (antibody, mouse IgG1, kappa, CH name; VH H237 + CH, L chain MRAL-k0; copies: 2 + 2) heavy: QVQLQESGPGLVKPSETLSLTCAVSGHSISHDHAWSWVRQPPGEGLEWIGFISYSGITNYNPSLQGRVTISRDNSKNTLYLQMNSLRAEDTAVYYCARSLARTTAMDYWGEGTLVTVSSAKTTPPSVYPLAPGSAAQTNSMVTLGCLVKGYFPEPVTVTWNSGSLSSGVHTFPAVLQSDLYTLSSSVTVPSSTWPSETVTCNVAHPASSTKVDKKIVPRDCGCKPCICEPNEVELVFIFPPKPKDVLTITLTPKVTCVVVDISKDDPEVQFSWFVDDVEVHTAQTQPREELFNSTFRSVSELPIMHQDWLNGKEFKCRVNSAAFPAYIEKTISKTKGRPKAPQVYTIPPPKEQMAKDKVSLTCMITDFFPEDITVEWQWNGQPAENYKNTQPIMDTDGSYFVYSKLNVQKSNWEAGNTFTCSVLHEGLHNHHTEKSLSHSPGK light: not shown
3.08	4.09	33.5	0.7	MB790 (antibody, mouse IgG1, kappa, CH name; VH H237 + CH, L chain MRAL-k0; copies: 2 + 2) heavy: QVQLQESGPGLVKPSETLSLTCAVSGHSISHDHAWSWVRQPPGEGLEWIGFISYSGITNYNPSLQGRVTISRDNSKNTLYLQMNSLRAEDTAVYYCARSLARTTAMDYWGEGTLVTVSSAKTTPPSVYPLAPGSAAQTNSMVTLGCLVKGYFPEPVTVTWNSGSLSSGVHTFPAVLQSDLYTLSSSVTVPSSTWPSETVTCNVAHPASSTKVDKKIVPRDCGCKPCICEPNEVELVFIFPPKPKDVLTITLTPKVTCVVVDISKDDPEVQFSWFVDDVEVHTAQTQPREEQFNSTFRSVSELPIMHQDWLNGKEFKCRVDSDAFPAPIERTISKTKGRPKAPQVYTIPPPKEQMAKDKVSLTCMITDFFPEDITVEWQWNGQPAENYKNTQPIMDTDGSYFVYSKLNVQKSNWEAGNTFTCSVLHEGLHNHHTEKSLSHSPGK light: not shown
1.67	2.11	21.9	0.49	MB807 (antibody, mouse IgG1, kappa, CH name; VH H237 + CH, L chain MRAL-k0; copies: 2 + 2) heavy: QVQLQESGPGLVKPSETLSLTCAVSGHSISHDHAWSWVRQPPGEGLEWIGFISYSGITNYNPSLQGRVTISRDNSKNTLYLQMNSLRAEDTAVYYCARSLARTTAMDYWGEGTLVTVSSAKTTPPSVYPLAPGSAAQTNSMVTLGCLVKGYFPEPVTVTWNSGSLSSGVHTFPAVLQSDLYTLSSSVTVPSSTWPSETVTCNVAHPASSTKVDKKIVPRDCGCKPCICEPNEVELVFIFPPKPKDVLTITLTPKVTCVVVDISKDDPEVQFSWFVDDVEVHTAQTQPREELFNSTFRSVSELPIMHQDWLNGKEFKCRVMSAAFPAPIEKTISKTKGRPKAPQVYTIPPPKEQMAKDKVSLTCMITDFFPEDITVEWQWNGQPAENYKNTQPIMDTDGSYFVYSKLNVQKSNWEAGNTFTCSVLHEGLHNHHTEKSLSHSPGK light: not shown
1.69	1.87	22.2	0.43	MB811 (antibody, mouse IgG1, kappa, CH name; VH H237 + CH, L chain MRAL-k0; copies: 2 + 2) heavy: QVQLQESGPGLVKPSETLSLTCAVSGHSISHDHAWSWVRQPPGEGLEWIGFISYSGITNYNPSLQGRVTISRDNSKNTLYLQMNSLRAEDTAVYYCARSLARTTAMDYWGEGTLVTVSSAKTTPPSVYPLAPGSAAQTNSMVTLGCLVKGYFPEPVTVTWNSGSLSSGVHTFPAVLQSDLYTLSSSVTVPSSTWPSETVTCNVAHPASSTKVDKKIVPRDCGCKPCICEPNEVELVFIFPPKPKDVLTITLTPKVTCVVVDISKDDPEVQFSWFVDDVEVHTAQTQPREELFNSTFRSVSELPIMHQDWLNGKEFKCRVNSAAFPAPIYKTISKTKGRPKAPQVYTIPPPKEQMAKDKVSLTCMITDFFPEDITVEWQWNGQPAENYKNTQPIMDTDGSYFVYSKLNVQKSNWEAGNTFTCSVLHEGLHNHHTEKSLSHSPGK light: not shown
